Experimental findings from the nanobody polyreactivity screen of Harvey et al. (2022) are described below.

A short description of the data set: yeast display, Sf9 membrane polyspecificity reagent, FACS + sequencing; frameworks hold sequencing errors. Summed up: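 A synthetic nanobody library was expressed on Saccharomyces cerevisiae BJ5465 by galactose induction for 36–48 hours. The library was stained for 1 hour at 4 °C with 10% biotinylated, detergent-solubilized Sf9 membrane reagent and enriched with streptavidin microbeads before FACS. Low and high (top ~1%) gates were set on anti-HA fluorescence for expression and streptavidin fluorescence for reagent binding, and each polyreactivity label reflects the gate of origin.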
Take “QVQLVESWGVLVQAGGSLRLSCAASGSIFTYYTMGWYRPEPGKERDFVARISSGGSTNYADSVKGRFTISRDNAMNTVYLQMNSLKPEDTAVYYCAAVSSYSPYRLTYYYWGQGTQVTVSS”: the “polyreactivity (PSR sort gate)” value is reported as “high polyreactivity”.

“QVQLVESGGGLFQAGGSLRLSCAATGITFFRYPMGWYRQAPGKERELVAVITRGGTTYYADSVKGRFTISRDNAKNNAYLQINSLKPEDTAVSYCAAKPYYGYDYWGQGTQVTVSW”: the “polyreactivity (PSR sort gate)” value is listed as “high polyreactivity”.

“QVQLVASGGRLVQAGGSLRLSCASSGSIFGWYAMGWYRQAPGKERELVAVITSGGSTYYADSVKGRFTISRDNAKNTVYLQMNSLKPVDTAVYYCNARYHAGYKGYNYWGQGTQVTVSS”: the “polyreactivity (PSR sort gate)” value is recorded as “high polyreactivity”.

For the sequence “QVQLVESGGGLVQAGGSLRLSCAASGFIFRGYAMGWYRQAPGKERELVAAISTGGGRTYYADSVKGRFTISRDNAKNTVYLQMNSLKPEDTAVYYCNRRSYTQVLMDYWGQGTQVTVSS”, the “polyreactivity (PSR sort gate)” value was “high polyreactivity”.

As to “QDQLVESGGGLVQAGGSLRLTCAASGSIFSANVMGWYRQAPGKERELVAAIRRGGTTYYADSVKGRFTISRDNSKNTVYLQMNRLNPEDSAVYYCATDGIFGSYLRFEVAYDYWGQGTQVTVSS”, the “polyreactivity (PSR sort gate)” value is reported as “low polyreactivity”.

With “QVQLVESGGGLVQAGGSLRLSCAASGSTFGYNAMGWYRQAPGTERELVAAISSRGGSTYYADSVKGRFTISRDNAKNTVYLQMNSLKPDDTAVYYCAADPPNGAEYYWGQGTQVTGSS”, the “polyreactivity (PSR sort gate)” value is “high polyreactivity”.

On to “QVQLVESGGGLVQAGGSLRLSCAASGRIFYYYTMGWYRQAPGKERELVAGISRSGDRTYYADSVKGRFTISRDNAKNTVYLQMNSLKPEDTAVYYCATRWSSARMDYWGLGTQVTVSS”, for which the “polyreactivity (PSR sort gate)” value is listed as “high polyreactivity”.

As for “QVQLVESGGGLVQAGGSLRLSCAASGFIFSPNALGWYRPAPGKEREFVAAIRYSGTSTSYADSVKGRFTISRDNAKNTVYLQMNSLKPEDTAVYYCNAQWRFSRGYTYNYWGQGTQVTVSS”, the “polyreactivity (PSR sort gate)” value is “high polyreactivity”.

Consider “QVQLVESGGGLVQAGGSLRLSCAASGLIFSPYAMGWYRQAPGKERELVATISVSGGDTYYADSVKGRFTISRDNAKNTVYLQMNSLIPDDTAVYYCAADSFYRYYWGQGTHVTVSS”, for which the “polyreactivity (PSR sort gate)” value is reported as “high polyreactivity”.

Take “QVQLVESGGGLVQAGGSLRLSCAASGITFRYYAMGWYRQAPGKERELVATISWSGGSTYYADSVKGRFTISRDNAKNTVYLQMNSLKPEDTAVYYCNADWYRSAWSKYDYWGQGTQVTVSS”: the “polyreactivity (PSR sort gate)” value is on record as “high polyreactivity”.

Regarding “QVQHVESGGGLVQAGGSLRLSCAASGIILGSYAMGWYRQAPGKEMELVAAIRWSRGRTYYADSVKGRFTISRDNAKNTVYLQMNSLKPEDSAVYYCAAANSRRGYDYWGQGTQVTVSS”, the “polyreactivity (PSR sort gate)” value was “high polyreactivity”.

Turning to “QVQLVESGGGLVQAGGRLRLSCAASGRIYTAYYAMGWYIQAPGKERELVASISSSGTSTYADSVKGRFTISRDNAKNTVYLQMNSLKPEDTAVYYCATRKLRTRRYDYGYWGQGTQVTVSS”, the “polyreactivity (PSR sort gate)” value was “low polyreactivity”.

For the sequence “QVQLVDSGGGLVQAGGSLRLSCAASGSTFYAYVMGWYRQAPGKERELVAGITWSGGSTYYADSVKGRFTISRDNAKNTVYLQMNSLKPEDTAVYYCAADYYNTYGYDYWGQGTQVTVSS”, the “polyreactivity (PSR sort gate)” value is on record as “low polyreactivity”.

“QVQLVESGGGLVQAGGILRLSCASSGRIFTFYAMGWYRQAPGKERELVAAISSGGSTYYADSVKGLFTISRDNAKNTVYLQMNSLKPEDTAVYYCAAEPVWYADYDYWGQGTQVTVSS”: the “polyreactivity (PSR sort gate)” value was “low polyreactivity”.

Consider “QVQLVESGGGLVQAGGSLRLSCAASGRTFGYYAMGWYRQAPGKERELVAAISTSGGGTYYADSVKGRFTISRDNAKYTVYLQMNSLKPVDTAVYYCARDRNTRYKFDYWGQGTQVTLSS”, for which the “polyreactivity (PSR sort gate)” value is “low polyreactivity”.

Consider “QVQLVESGGGLVEAGGSLRLSCAASGRIFKVYAMGWYRQGPGKERELVAAISRSCGSTYYADSVKGRFTISRDKAKITVSLQMNSLKPEDTAVYYCNAYFVSGHAGGYDYWGQGTQVTVSS”, for which the “polyreactivity (PSR sort gate)” value is given as “high polyreactivity”.
